# Experimental data published in PMC12583513, “Deciphering the molecular mechanism of the bacterial division motor TolQRA” (Cell Discovery, 2025).
# Values joined by “and” are separate entries in the source; they are usually repeats but may differ in a detail not shown here. Equal values may be shown once.
# T1: TolA (residues 34–421) (Escherichia coli K12, UniProt P19934 34-421, RED-tris-NTA dye on the His tag)
# T1 construct: TolA of Escherichia coli K12, residues 34-421, amplified from genomic DNA into a modified pET28a; also called soluble TolA; TolA with the periplasmic loop TolA_β; source: E. coli BL21(DE3), purified (Ni-NTA column, desalting); not shown: 8x His, C-terminal, kept
# T1 sequence (looked up): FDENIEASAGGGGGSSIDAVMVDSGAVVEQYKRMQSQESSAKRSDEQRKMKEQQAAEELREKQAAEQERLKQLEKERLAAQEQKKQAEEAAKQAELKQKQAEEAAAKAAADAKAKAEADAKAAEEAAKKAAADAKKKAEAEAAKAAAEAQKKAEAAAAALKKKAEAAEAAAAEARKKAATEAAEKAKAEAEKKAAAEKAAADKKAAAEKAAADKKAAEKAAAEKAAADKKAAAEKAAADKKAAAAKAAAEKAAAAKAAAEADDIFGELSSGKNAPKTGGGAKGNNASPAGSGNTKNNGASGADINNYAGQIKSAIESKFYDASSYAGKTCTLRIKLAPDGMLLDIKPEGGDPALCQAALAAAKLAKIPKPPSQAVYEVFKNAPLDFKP
# T2: TolA (residues 58–421) (Escherichia coli K12, UniProt P19934 58-421, RED-tris-NTA dye on the His tag)
# T2 construct: TolA of Escherichia coli K12, residues 58-421, amplified from genomic DNA into a modified pET28a; also called soluble TolA without TolA_β; source: E. coli BL21(DE3), purified (Ni-NTA column, desalting); not shown: 8x His, C-terminal, kept
# T2 sequence (looked up): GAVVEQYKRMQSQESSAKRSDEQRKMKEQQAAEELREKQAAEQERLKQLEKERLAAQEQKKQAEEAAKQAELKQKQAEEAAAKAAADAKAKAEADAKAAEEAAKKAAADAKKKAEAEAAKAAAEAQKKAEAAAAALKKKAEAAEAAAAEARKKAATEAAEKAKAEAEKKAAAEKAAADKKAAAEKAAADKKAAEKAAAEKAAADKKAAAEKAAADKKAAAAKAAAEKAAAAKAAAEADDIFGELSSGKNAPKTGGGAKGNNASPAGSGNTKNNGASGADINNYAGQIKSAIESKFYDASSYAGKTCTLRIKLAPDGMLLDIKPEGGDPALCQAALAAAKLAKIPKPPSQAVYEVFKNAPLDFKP
# B1: TolR (residues 60–133) (domain or fragment, Escherichia coli K12, UniProt P0ABV6 60-133, looked up)
# chain: DNPPVIVEVSGIGQYTVVVEKDRLERLPPEQVVAEVSSRFKANPKTVFLIGGAKDVPYDEIIKALNLLHSAGVK
# notes: TolR of Escherichia coli K12, residues 60-133 of the periplasmic domain, amplified from genomic DNA into a modified pET28a; also called TolR^60–133; TolR lacking both β1/α1 and β6; source: E. coli BL21(DE3), purified (Strep-Tactin column, desalting)
# B2: TolQ (natural protein, Escherichia coli (strain K12))
# chain: MTDMNILDLFLKASLLVKLIMLILIGFSIASWAIIIQRTRILNAAAREAEAFEDKFWSGIELSRLYQESQGKRDNLTGSEQIFYSGFKEFVRLHRANSHAPEAVVEGASRAMRISMNRELENLETHIPFLGTVGSISPYIGLFGTVWGIMHAFIALGAVKQATLQMVAPGIAEALIATAIGLFAAIPAVMAYNRLNQRVNKLELNYDNFMEEFTAILHRQAFTVSESNKG
# notes: TolQ of Escherichia coli strain K12; the operon encoding TolQRA was cloned into pTRC99a; no tag on TolQ in this construct; The whole tolQRA operon was cloned, so the whole gene is implied; a minor hexameric class (six TolQ subunits) was also seen; also called TolQ1; TolQ2; source: E. coli C43 (DE3), co-expressed from pTRC99a-TolQR(Strep)A(His), purified as complex (HisTrap + Superdex 200, …)
# Key:
# TolA (residues 34–421) = target: T1, TolA (residues 34–421); experiment: MST; TolA labelled with RED-tris-NTA dye, fixed at 50 nM; TolR titrated in 16 points from 150 μM to 4.58 nM; 20 mM HEPES pH 7.8, 150 mM NaCl; 25 °C; Monolith NT.115; settings: both partners purified
# TolA (residues 58–421) = target: T2, TolA (residues 58–421); experiment: as above; settings: both partners purified
# [1] = target: the molecule itself; experiment: cryo-EM structure; TolQRA co-expressed, purified by the His tag of TolA in DDM/CHS then LMNG/CHS, reconstituted in MSP1D1 nanodiscs with E. coli total lipid extract; 20 mM Tris pH 7.8, 150 mM NaCl; classes with one, two or three TolA
Binder,binding result (TolA (residues 34–421)),binding result (TolA (residues 58–421)),stoichiometry N [1]
B1,binds,binds,
B2,,,5 and 6
